Each substance was assayed against FcγRIIb (human) (UniProt P31994) (assay: SPR, captured antibody).
Sequence of FcγRIIb (human) (P31994 43-217 limits assumed): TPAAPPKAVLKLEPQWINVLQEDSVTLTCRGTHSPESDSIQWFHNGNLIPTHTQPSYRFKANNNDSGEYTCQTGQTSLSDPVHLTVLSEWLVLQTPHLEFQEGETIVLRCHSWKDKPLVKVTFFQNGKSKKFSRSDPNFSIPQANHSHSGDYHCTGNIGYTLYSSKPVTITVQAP
With GpH7-B3 S298W/GpL16-k0 (antibody) the relative binding activity (% of GpH7-B3/GpL16-k0) was 9.

The substances below were run against human FcγRIIIa(F) (human) (UniProt P08637) (assay: SPR, captured antibody).
Sequence of human FcγRIIIa(F) (human) (P08637 other isoform, or with tags, fused parts or gaps limits assumed): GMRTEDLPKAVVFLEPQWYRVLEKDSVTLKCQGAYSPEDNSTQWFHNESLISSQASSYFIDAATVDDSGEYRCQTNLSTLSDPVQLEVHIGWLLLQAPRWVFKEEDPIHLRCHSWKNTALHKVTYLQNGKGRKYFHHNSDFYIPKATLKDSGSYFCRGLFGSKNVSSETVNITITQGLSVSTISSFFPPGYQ
Work on GpH7-B3 Q295W/GpL16-k0 (antibody) yielded a relative binding activity (% of GpH7-B3/GpL16-k0) of 10.
Work on GpH7-B3 Q295Y/GpL16-k0 (antibody) yielded a relative binding activity (% of GpH7-B3/GpL16-k0) of 49.
Substance GpH7-B3 S298G/GpL16-k0 (antibody) has a relative binding activity (% of GpH7-B3/GpL16-k0) of 59.
GpH7-B3 S298K/GpL16-k0 (antibody) gave a relative binding activity (% of GpH7-B3/GpL16-k0) of 25.
GpH7-B3 S298P/GpL16-k0 (antibody) gave a relative binding activity (% of GpH7-B3/GpL16-k0) of 0.
GpH7-B3 S298R/GpL16-k0 (antibody) was tested, and the relative binding activity (% of GpH7-B3/GpL16-k0) was 20.
In the case of GpH7-B3 S298W/GpL16-k0 (antibody), the relative binding activity (% of GpH7-B3/GpL16-k0) is reported as 11.
GpH7-B3 S298Y/GpL16-k0 (antibody) was tested, and the relative binding activity (% of GpH7-B3/GpL16-k0) was 71.
GpH7-B3 S324K/GpL16-k0 (antibody) showed a relative binding activity (% of GpH7-B3/GpL16-k0) of 74.
In the case of GpH7-B3 S324P/GpL16-k0 (antibody), the relative binding activity (% of GpH7-B3/GpL16-k0) is reported as 35.
GpH7-B3 Y296G/GpL16-k0 (antibody) gave a relative binding activity (% of GpH7-B3/GpL16-k0) of 21.
GpH7-B3 Y296K/GpL16-k0 (antibody) was tested, and the relative binding activity (% of GpH7-B3/GpL16-k0) was 21.
For GpH7-B3 Y296P/GpL16-k0 (antibody), the relative binding activity (% of GpH7-B3/GpL16-k0) was 8.
Substance GpH7-B3 Y296R/GpL16-k0 (antibody) has a relative binding activity (% of GpH7-B3/GpL16-k0) of 38.
For GpH7-B3 Y300K/GpL16-k0 (antibody), the relative binding activity (% of GpH7-B3/GpL16-k0) was 35.
For GpH7-B3 Y300P/GpL16-k0 (antibody), the relative binding activity (% of GpH7-B3/GpL16-k0) was -1.
Work on GpH7-B3 Y300R/GpL16-k0 (antibody) yielded a relative binding activity (% of GpH7-B3/GpL16-k0) of 12.

What follows are substances tested against human FcγRIIa(R) (human) (UniProt P12318) (assay: SPR (Biacore)).
Sequence of human FcγRIIa(R) (human) (P12318 other isoform, or with tags, fused parts or gaps limits assumed): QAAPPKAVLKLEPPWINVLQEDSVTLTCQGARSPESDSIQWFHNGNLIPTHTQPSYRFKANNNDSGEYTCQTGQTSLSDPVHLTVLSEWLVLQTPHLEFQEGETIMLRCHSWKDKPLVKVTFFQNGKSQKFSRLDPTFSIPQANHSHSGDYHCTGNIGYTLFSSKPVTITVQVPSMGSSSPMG
Work on “GpH7-B3 variant G236K/GpL16-k0 (antibody)” yielded a relative binding activity (% of GpH7-B3/GpL16-k0) of 9.
“GpH7-B3 variant G237P/GpL16-k0 (antibody)” showed a relative binding activity (% of GpH7-B3/GpL16-k0) of 8.
“GpH7-B3 variant L234G/GpL16-k0 (antibody)” was tested, and the relative binding activity (% of GpH7-B3/GpL16-k0) was 9.
In the case of “GpH7-B3 variant S239R/GpL16-k0 (antibody)”, the relative binding activity (% of GpH7-B3/GpL16-k0) is reported as 8.

The substances below were run against FcγRIIb (human) (UniProt P31994) (assay: SPR (Biacore)).
Work on “GpH7-B3 variant E269H/GpL16-k0 (antibody)” yielded a relative binding activity (% of GpH7-B3/GpL16-k0) of 8.
“GpH7-B3 variant E269I/GpL16-k0 (antibody)” was tested, and the relative binding activity (% of GpH7-B3/GpL16-k0) was 9.

What follows are substances tested against human FcγRIIIa(F) (human) (UniProt P08637) (assay: SPR (Biacore)).
“GpH7-B3 variant E269W/GpL16-k0 (antibody)” showed a relative binding activity (% of GpH7-B3/GpL16-k0) of 9.

The substances below were run against human FcγRIIa(H) (human) (UniProt P12318) (assay: SPR (Biacore)).
Sequence of human FcγRIIa(H) (human) (P12318 other isoform, or with tags, fused parts or gaps limits assumed): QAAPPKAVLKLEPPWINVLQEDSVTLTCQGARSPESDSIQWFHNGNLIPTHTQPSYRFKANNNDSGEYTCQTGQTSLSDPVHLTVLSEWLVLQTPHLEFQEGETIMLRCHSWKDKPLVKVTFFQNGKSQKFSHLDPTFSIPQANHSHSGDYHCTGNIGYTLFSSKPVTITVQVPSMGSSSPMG
Work on “GpH7-B3 variant G237A/GpL16-k0 (antibody)” yielded a relative binding activity (% of GpH7-B3/GpL16-k0) of 9.
“GpH7-B3 variant S239W/GpL16-k0 (antibody)” was tested, and the relative binding activity (% of GpH7-B3/GpL16-k0) was 9.
Substance “GpH7-B3 variant V266F/GpL16-k0 (antibody)” has a relative binding activity (% of GpH7-B3/GpL16-k0) of 8.
